Test system: six V600E BRAF melanoma cell lines
Assay: Screening of recombinant RTK ligands for ability to confer resistance to BRAFi (PLX4720) or MEKi (PD184352) (Table 4)
Type: cell-based, human
Parameters: ability of recombinant RTK ligand to confer resistance / ability of recombinant RTK ligand to confer resistance (screening value): scale not given here
Outline: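 Resistance to BRAFi (PLX4720) or MEKi (PD184352) was tested in six V600E BRAF melanoma lines given one of 22 recombinant RTK ligands. For a subset of RTKs, activation was checked by high-throughput tyrosine kinase phosphorylation profiling and western blot.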

B1: GDNF (protein, UniProt P39905 78-211, looked up)
Glial cell line-derived …: SPDKQMAVLPRRERNRQAAAANPENSRGKGRRGQRGKNRGCVLTAIHLNVTDLGLGYETKEELIFRYCSGSCDAAETTYDKILKNLSRNRRLVSDKVGQACCRPIAFDDDLSFLDDNLVYHILRKHSAKRCGCI
ability of recombinant RTK ligand to confer resistance (A2058, PD184352 - 1 uM, ligand 0.4 ng/ml): 0.98
ability of recombinant RTK ligand to confer resistance (A2058, PD184352 - 1 uM, ligand 1.6 ng/ml): 1.03
ability of recombinant RTK ligand to confer resistance (A2058, PD184352 - 1 uM, ligand 6.25 ng/ml): 1.00
ability of recombinant RTK ligand to confer resistance (A2058, PD184352 - 1 uM, ligand 25 ng/ml): 0.93
ability of recombinant RTK ligand to confer resistance (A2058, PD184352 - 1 uM, ligand 100 ng/ml): 0.92
ability of recombinant RTK ligand to confer resistance (A2058, PLX4720 - 2 uM, ligand 0.4 ng/ml): 0.97
ability of recombinant RTK ligand to confer resistance (A2058, PLX4720 - 2 uM, ligand 1.6 ng/ml): 0.97
ability of recombinant RTK ligand to confer resistance (A2058, PLX4720 - 2 uM, ligand 6.25 ng/ml): 0.98
ability of recombinant RTK ligand to confer resistance (A2058, PLX4720 - 2 uM, ligand 25 ng/ml): 0.94
ability of recombinant RTK ligand to confer resistance (A2058, PLX4720 - 2 uM, ligand 100 ng/ml): 0.97
ability of recombinant RTK ligand to confer resistance (C32, PD184352 - 1 uM, ligand 0.4 ng/ml): 1.08
ability of recombinant RTK ligand to confer resistance (C32, PD184352 - 1 uM, ligand 1.6 ng/ml): 1.13
ability of recombinant RTK ligand to confer resistance (C32, PD184352 - 1 uM, ligand 6.25 ng/ml): 1.03
ability of recombinant RTK ligand to confer resistance (C32, PD184352 - 1 uM, ligand 25 ng/ml): 0.96
ability of recombinant RTK ligand to confer resistance (C32, PD184352 - 1 uM, ligand 100 ng/ml): 0.94
ability of recombinant RTK ligand to confer resistance (C32, PLX4720 - 2 uM, ligand 0.4 ng/ml): 1.04
ability of recombinant RTK ligand to confer resistance (C32, PLX4720 - 2 uM, ligand 1.6 ng/ml): 1.11
ability of recombinant RTK ligand to confer resistance (C32, PLX4720 - 2 uM, ligand 6.25 ng/ml): 1.03
ability of recombinant RTK ligand to confer resistance (C32, PLX4720 - 2 uM, ligand 25 ng/ml): 0.91
ability of recombinant RTK ligand to confer resistance (C32, PLX4720 - 2 uM, ligand 100 ng/ml): 0.94
ability of recombinant RTK ligand to confer resistance (Colo 829, PD184352 - 1 uM, ligand 0.4 ng/ml): 0.95
ability of recombinant RTK ligand to confer resistance (Colo 829, PD184352 - 1 uM, ligand 1.6 ng/ml): 0.96
ability of recombinant RTK ligand to confer resistance (Colo 829, PD184352 - 1 uM, ligand 6.25 ng/ml): 0.96
ability of recombinant RTK ligand to confer resistance (Colo 829, PD184352 - 1 uM, ligand 25 ng/ml): 1.07
ability of recombinant RTK ligand to confer resistance (Colo 829, PD184352 - 1 uM, ligand 100 ng/ml): 0.98
ability of recombinant RTK ligand to confer resistance (Colo 829, PLX4720 - 2 uM, ligand 0.4 ng/ml): 1.00
ability of recombinant RTK ligand to confer resistance (Colo 829, PLX4720 - 2 uM, ligand 1.6 ng/ml): 1.00
ability of recombinant RTK ligand to confer resistance (Colo 829, PLX4720 - 2 uM, ligand 6.25 ng/ml): 0.96
ability of recombinant RTK ligand to confer resistance (Colo 829, PLX4720 - 2 uM, ligand 25 ng/ml): 1.09
ability of recombinant RTK ligand to confer resistance (Colo 829, PLX4720 - 2 uM, ligand 100 ng/ml): 1.00
ability of recombinant RTK ligand to confer resistance (G-361, PD184352 - 1 uM, ligand 0.4 ng/ml): 1.00
ability of recombinant RTK ligand to confer resistance (G-361, PD184352 - 1 uM, ligand 1.6 ng/ml): 0.94
ability of recombinant RTK ligand to confer resistance (G-361, PD184352 - 1 uM, ligand 6.25 ng/ml): 1.04
ability of recombinant RTK ligand to confer resistance (G-361, PD184352 - 1 uM, ligand 25 ng/ml): 0.92
ability of recombinant RTK ligand to confer resistance (G-361, PD184352 - 1 uM, ligand 100 ng/ml): 0.95
ability of recombinant RTK ligand to confer resistance (G-361, PLX4720 - 2 uM, ligand 0.4 ng/ml): 0.94
ability of recombinant RTK ligand to confer resistance (G-361, PLX4720 - 2 uM, ligand 1.6 ng/ml): 0.94
ability of recombinant RTK ligand to confer resistance (G-361, PLX4720 - 2 uM, ligand 6.25 ng/ml): 0.93
ability of recombinant RTK ligand to confer resistance (G-361, PLX4720 - 2 uM, ligand 25 ng/ml): 0.87
ability of recombinant RTK ligand to confer resistance (G-361, PLX4720 - 2 uM, ligand 100 ng/ml): 0.79
ability of recombinant RTK ligand to confer resistance (SK-MEL-5, PD184352 - 1 uM, ligand 0.4 ng/ml): 0.99
ability of recombinant RTK ligand to confer resistance (SK-MEL-5, PD184352 - 1 uM, ligand 1.6 ng/ml): 0.89
ability of recombinant RTK ligand to confer resistance (SK-MEL-5, PD184352 - 1 uM, ligand 6.25 ng/ml): 1.03
ability of recombinant RTK ligand to confer resistance (SK-MEL-5, PD184352 - 1 uM, ligand 25 ng/ml): 0.94
ability of recombinant RTK ligand to confer resistance (SK-MEL-5, PD184352 - 1 uM, ligand 100 ng/ml): 0.93
ability of recombinant RTK ligand to confer resistance (SK-MEL-5, PLX4720 - 2 uM, ligand 0.4 ng/ml): 1.04
ability of recombinant RTK ligand to confer resistance (SK-MEL-5, PLX4720 - 2 uM, ligand 1.6 ng/ml): 0.71
ability of recombinant RTK ligand to confer resistance (SK-MEL-5, PLX4720 - 2 uM, ligand 6.25 ng/ml): 1.00
ability of recombinant RTK ligand to confer resistance (SK-MEL-5, PLX4720 - 2 uM, ligand 25 ng/ml): 1.01
ability of recombinant RTK ligand to confer resistance (SK-MEL-5, PLX4720 - 2 uM, ligand 100 ng/ml): 1.08
ability of recombinant RTK ligand to confer resistance (SK-MEL-28, PD184352 - 1 uM, ligand 0.4 ng/ml): 0.99
ability of recombinant RTK ligand to confer resistance (SK-MEL-28, PD184352 - 1 uM, ligand 1.6 ng/ml): 1.03
ability of recombinant RTK ligand to confer resistance (SK-MEL-28, PD184352 - 1 uM, ligand 6.25 ng/ml): 1.02
ability of recombinant RTK ligand to confer resistance (SK-MEL-28, PD184352 - 1 uM, ligand 25 ng/ml): 0.92
ability of recombinant RTK ligand to confer resistance (SK-MEL-28, PD184352 - 1 uM, ligand 100 ng/ml): 0.96
ability of recombinant RTK ligand to confer resistance (SK-MEL-28, PLX4720 - 2 uM, ligand 0.4 ng/ml): 1.04
ability of recombinant RTK ligand to confer resistance (SK-MEL-28, PLX4720 - 2 uM, ligand 1.6 ng/ml): 0.91
ability of recombinant RTK ligand to confer resistance (SK-MEL-28, PLX4720 - 2 uM, ligand 6.25 ng/ml): 1.05
ability of recombinant RTK ligand to confer resistance (SK-MEL-28, PLX4720 - 2 uM, ligand 25 ng/ml): 0.97
ability of recombinant RTK ligand to confer resistance (SK-MEL-28, PLX4720 - 2 uM, ligand 100 ng/ml): 1.01

— patent US20140348819A1, “Methods of Treating Cancer” (Dana-Farber Cancer Institute, Inc., priority 2011, published 2014)
